Measurements reported in patent publication US9120851B2, “Human antibodies to human angiopoietin-like protein 4” (Regeneron Pharmaceuticals, Inc., priority 2009, dated 2015).

T1: hANGPTL4(26-406)-His (Homo sapiens, UniProt Q9BY76)
T1 construct: purchased R&D Systems
T1 sequence (Q9BY76 26-406): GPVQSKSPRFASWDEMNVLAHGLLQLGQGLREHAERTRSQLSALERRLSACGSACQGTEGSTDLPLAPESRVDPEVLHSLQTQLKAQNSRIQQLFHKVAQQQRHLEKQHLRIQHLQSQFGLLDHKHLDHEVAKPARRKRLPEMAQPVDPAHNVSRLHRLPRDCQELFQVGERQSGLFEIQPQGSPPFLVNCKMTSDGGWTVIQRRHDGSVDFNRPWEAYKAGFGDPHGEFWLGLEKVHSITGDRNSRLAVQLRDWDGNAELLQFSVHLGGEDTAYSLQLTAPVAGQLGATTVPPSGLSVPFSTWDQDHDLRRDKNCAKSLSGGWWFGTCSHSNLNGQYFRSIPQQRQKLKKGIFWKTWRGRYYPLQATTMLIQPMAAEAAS

T2: bovine LPL (Bos taurus, UniProt P11151)
T2 sequence (P11151 29-478): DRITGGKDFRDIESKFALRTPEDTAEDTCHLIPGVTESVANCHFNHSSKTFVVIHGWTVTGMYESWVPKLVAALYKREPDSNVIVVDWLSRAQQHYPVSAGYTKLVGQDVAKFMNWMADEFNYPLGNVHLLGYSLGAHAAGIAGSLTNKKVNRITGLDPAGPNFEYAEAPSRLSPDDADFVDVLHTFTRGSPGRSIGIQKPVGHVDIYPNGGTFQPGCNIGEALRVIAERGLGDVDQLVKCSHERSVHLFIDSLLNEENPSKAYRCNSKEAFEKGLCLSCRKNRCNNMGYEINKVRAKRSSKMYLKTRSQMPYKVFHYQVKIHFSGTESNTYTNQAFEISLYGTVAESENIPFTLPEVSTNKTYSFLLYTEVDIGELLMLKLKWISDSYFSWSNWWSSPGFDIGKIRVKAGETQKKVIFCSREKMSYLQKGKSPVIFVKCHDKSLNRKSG

B1: H1H268P Fab: Fab fragment of H1H268P prepared by papain digestion (antibody, V domains shown)
VH: QVQLQESGAGLLKPSETLSLTCTVYGGSFSIHHWTWIRHPPGKGLEWIGEINHRGSTNYNPSLKSRVTISIDTSKNQFSLKLSAVTAADTAVYYCARGLRFLDWLSSYFDYWGQGTLVTVSS
VL: DIQMTQSPSSLSASVGDRVTITCRASQGISDYLAWYQQKPGKVPNLLIYAASALQSGVPSRFSGSGSGTDFTLTISSLQPEDVATYYCQNYNTAPLTFGGGTKVEIK
B2: hANGPTL4(26-148)-mFc: amino acid residues 26-148 of human ANGPTL4 fused in-line to mouse IgG2a (SEQ ID NO:480) (protein)
chain: GPVQSKSPRFASWDEMNVLAHGLLQLGQGLREHAERTRSQLSALERRLSACGSACQGTEGSTDLPLAPESRVDPEVLHSLQTQLKAQNSRIQQLFHKVAQQQRHLEKQHLRIQHLQSQFGLLDPGSLEFALERNSGEPRGPTIKPCPPCKCPAPNLLGGPSVFIFPPKIKDVLMISLSPIVTCVVVDVSEDDPDVQISWFVNNVEVHTAQTQTHREDYNSTLRVVSALPIQHQDWMSGKEFKCKVNNKDLPAPIERTISKPKGSVRAPQVYVLPPPEEEMTKKQVTLTCMVTDFMPEDIYVEWTNNGKTELNYKNTEPVLDSDGSYFMYSKLRVEKKNWVERNSYSCSVVHEGLHNHHTTKSFSRTPGK
B3: H1H284P Fab: Fab fragment of H1H284P prepared by papain digestion (antibody, V domains shown)
VH: QVQLVESGGGVVQPGRSLRLSCAASGFTFSSYGMHWVRQAPGKGLEWMAVISFDGGNKNNADSVKGRFTISRDNSKNTLYLQMNSLRAEDTAVYYCAKEGDRSGHPYFYYYGLDVWGQGTTVTVS
VL: DIQLTQSPSFLSASVGDRVTITCWASQGISSYLAWYQQKPGKAPKLLIYAASTLQSGVPSRFSGSGSETEFTLTISSLQPEDFATYYCQQLHSYPLTFGGGTKVEIK
B4: His-MfANGPTL4 (26-148): cynomolgus monkey ANGPTL4 N-terminal region (residues 26-148) with an N-terminal hexa-histidine tag (SEQ ID NO:488) (protein)
chain: MHHHHHHGPVQSKSPRFASWDEMNVLAHGLLQLGQGLREHAERTRSQLNALERRLSACGSACQGTEGSTALPLAPESRVDPEVLHSLQTQLKAQNSRIQQLFHKVAQQQRHLEKQHLRIQRLQSQVGLLD

Tests used:
humanized ANGPTL4 mice = assay: Serum TG, H4H268P2 and fenofibrate alone or in combination; type: in vivo, mouse
Method: The effects of the anti-ANGPTL4 antibody H4H268P2 and TG-reducing drug fenofibrate, each alone or in combination, on serum TG levels were evaluated in humanized ANGPTL4 mice. The mice were pre-bled 7 days before the experiment after 4 hours of fasting and put into 4 groups of six mice each. Groups 2 and 4 were administered with H4H268P2 at 10 mg/kg by subcutaneous injection on day 0 and groups 1 (control group) and 2 were placed on regular chow diet. Groups 3 and 4 received chow diet supplemented with 0.05% (w/w) of fenofibrate (the dosage level was determined experimentally in a pilot study). Serum was collected from a terminal bleed on day 7 after H4H268P2 and/or fenofibrate administration (after 4 hours of fasting) and analyzed by ADVIA® 1800 Chemistry System (Siemens).

MfANGPTL4(1-130)-His = assay: BIACORE, full mAb or Fab over amino-coupled MfANGPTL4(1-130)-His; type: binding, cynomolgus monkey; conditions: for Response bound at 50 nM mAb or Fab: amino-coupled 1,028 RU
Method: (§1) Briefly, various concentrations (3.125 nM-100 nM) of anti-hANGPTL4 antibodies (i.e., H1H268 Fab, entire H1H268 mAb, H1H284 Fab, and entire H1H284 mAb) were injected over a low density anti-mFc captured hANGPTL4(26-148)-mFc (˜68±4 RU) surface, or the surface of amino-coupled hANGPTL4(26-406)-His (R&D Systems) (450 RU) or amino-coupled cynomolgus monkey N-terminal region (amino acid residues 1-130 of SEQ ID NO:490) expressed with an C-terminal hexa-histidine tag (MfANGPTL4(1-130)-His) (1,028 RU). Kinetic analysis was performed to measure ka and kd, and KD values and half-life of antigen/antibody complex dissociation were calculated. The results are shown in Table 4 (H1H268P) and Table 5 (H1H284P).

hANGPTL4(26-148)-mFc [1] = biological target: T3, hANGPTL4(26-148)-mFc (Homo sapiens, UniProt Q9BY76); assay: BIACORE, full mAb or Fab over anti-mFc captured hANGPTL4(26-148)-mFc; type: binding
T3 construct: amino acid residues 26-148 of human ANGPTL4 fused in-line to mouse IgG2a (hANGPTL4-mFc)

hANGPTL4(26-406)-His = biological target: T1, hANGPTL4(26-406)-His; assay: BIACORE, full mAb or Fab over amino-coupled hANGPTL4(26-406)-His; type: binding; conditions: for RU bound at 50 nM mAb or Fab: amino-coupled 450 RU
Method: as §1

hANGPTL4(26-148)-mFc [2] = biological target: T3, hANGPTL4(26-148)-mFc; assay: BIACORE, full mAb or Fab over anti-mFc captured hANGPTL4(26-148)-mFc; type: binding; remark: listed apart in the source
Method: as §1

C57BL/6 mice = assay: In vivo effect of hANGPTL4-mFc on plasma lipid levels; set-up: species or system mouse
Method: hANGPTL4 was administered intravenously to C57BL/6 mice to determine the biological effect of hANGPTL4 on plasma lipid levels. Briefly, C57BL/6 mice were put into four groups of five animals and each group was administered with different amount of hANGPTL4-mFc protein (SEQ ID NO:480): 25 μg, 50 μg, 100 μg and 300 μg, per mouse. A control group received injections of PBS. hANGPTL4-mFc protein and PBS were administered by intravenous injection (i.v.) via tail vein. Mice were bled at 15 min, 30 min, 60 min and 120 min after delivery of hANGPTL4-mFc or PBS and plasma lipid levels were determined by ADVIA® 1650 Chemistry System (Siemens). Measurements of triglycerides, total cholesterol, low density lipoprotein (LDL), nonesterified fatty acids (NEFA-C) and high density lipoprotein (HDL) were determined for each dose group. […] Thus, the 25 μg dose of hANGPTL4-mFc was selected as a possible minimum dosage for analysis of inhibition of ANGPTL4-induced increase in serum triglyceride levels by selected anti-hANGPTL4 antibodies as described below.

bovine LPL = biological target: T2, bovine LPL; assay: Dose-response of ANGPTL4 protein in the LPL assay; type: biochemical; conditions: full dose-response of ANGPTL4 protein, determined for each experiment
Method: Briefly, 2 nM bovine LPL, 0.25 μM human ApoCII (a cofactor of LPL), 2 mg/mL BSA and 1.6 mM CaCl2, were premixed in a 96-well assay plate. Either hANGPTL4-His or hANGPTL4-mFc protein was added to the Apo/LPL mixture to a final concentration of 10 nM and 2 nM, respectively. The Apo/LPL/ANGPTL4 protein mixtures were then added together with serially diluted anti-hANGPTL4 antibodies with a starting concentration of 300 nM (for inhibition of hANGPTL4-His) or 100 nM (for inhibition of hANGPTL4-mFc) and incubated at room temperature for 30 minutes (final volume 50 μl). Following the incubation, 200 μl of reconstituted lipase substrate, 1-trinitrophenyl-amino-dodecanoyl-2-pyrendecanoyl-3-0-hexadecyl-sn-glycerol (LS-A, Progen), was added to the antibody mixture and incubated at 37° C. for two hours. Fluorescence was then measured at 342 nm/400 nm (excitation/emission) using a FlexStation® 3 Microplate Reader (Molecular Devices, CA). Fluorescence is directly proportional to LPL activity. Control I: a rabbit polyclonal antibody specific for hANGPTL4 (BioVendor). […] NT: not tested. […]

[3] = pH 5.75, 25° C., antigen captured 27 ± 0.6 RU
[4] = pH 7.2, 25° C., antigen captured 35 ± 1.9 RU

| Molecule | ka (MfANGPTL4(1-130)-His; pH 5.75, 25° C.) [M⁻¹ s⁻¹] | kd (MfANGPTL4(1-130)-His; pH 5.75, 25° C.) [s⁻¹] | Response bound at 50 nM mAb or Fab (MfANGPTL4(1-130)-His; pH 5.75, 25° C.) | ka (MfANGPTL4(1-130)-His; pH 7.2, 25° C.) [M⁻¹ s⁻¹] | kd (MfANGPTL4(1-130)-His; pH 7.2, 25° C.) [s⁻¹] | Response bound at 50 nM mAb or Fab (MfANGPTL4(1-130)-His; pH 7.2, 25° C.) | Response bound at 50 nM mAb or Fab (RU) (hANGPTL4(26-148)-mFc [1]; [3]) | Response bound at 50 nM mAb or Fab (RU) (hANGPTL4(26-148)-mFc [1]; [4]) | ka (hANGPTL4(26-406)-His; pH 5.75, 25° C.) [M⁻¹ s⁻¹] | kd (hANGPTL4(26-406)-His; pH 5.75, 25° C.) [s⁻¹] | RU bound at 50 nM mAb or Fab (hANGPTL4(26-406)-His; pH 5.75, 25° C.) | ka (hANGPTL4(26-406)-His; pH 7.2, 25° C.) [M⁻¹ s⁻¹] | kd (hANGPTL4(26-406)-His; pH 7.2, 25° C.) [s⁻¹] | RU bound at 50 nM mAb or Fab (hANGPTL4(26-406)-His; pH 7.2, 25° C.) | ka (hANGPTL4(26-148)-mFc [2]; pH 5.75, 25° C.) [M⁻¹ s⁻¹] | kd (hANGPTL4(26-148)-mFc [2]; pH 5.75, 25° C.) [s⁻¹] | ka (hANGPTL4(26-148)-mFc [2]; pH 7.2, 25° C.) [M⁻¹ s⁻¹] | kd (hANGPTL4(26-148)-mFc [2]; pH 7.2, 25° C.) [s⁻¹] | other results |
| --- | --- | --- | --- | --- | --- | --- | --- | --- | --- | --- | --- | --- | --- | --- | --- | --- | --- | --- | --- |
| CC(C)OC(=O)C(C)(C)Oc1ccc(C(=O)c2ccc(Cl)cc2)cc1 [fenofibrate] |  |  |  |  |  |  |  |  |  |  |  |  |  |  |  |  |  |  | TG levels reduced (mean) compared to control group on chow diet (humanized ANGPTL4 mice; day 7, H4H268P2 10 mg/kg s.c. day 0, fenofibrate 0.05% (w/w) in chow): ~25%; liver enlargement (liver weight/body weight) compared to control chow diet (humanized ANGPTL4 mice; mice that consumed fenofibrate for 7 days (groups 3 and 4)): 1.8 times |
| B1 | 312000 | 0.00432 | 178 | 267000 | 0.00171 | 167 | 20 | 10 | 444000 | 0.00657 | 10 | 726000 | 0.0118 | 13 | 174000 | 0.00304 | 300000 | 0.000601 |  |
| B2 |  |  |  |  |  |  |  |  |  |  |  |  |  |  |  |  |  |  | increase of circulating triglycerides as compared to control mice (PBS) (C57BL/6 mice; 25 μg/mouse i.v., 30 minutes post injection): greater than two-fold; total cholesterol, LDL, NEFA-C and HDL across dose groups (C57BL/6 mice; 25, 50, 100, 300 μg per mouse i.v., each time point post-injection): not significantly different |
| B3 | 724000 | 0.00619 | 255 | 310000 | 0.00313 | 214 | 56 | 29 | 1.21e+06 | 0.00173 | 33 | 1.11e+06 | 0.000344 | 32 | 472000 | 0.0016 | 245000 | 0.000202 |  |
| B4 |  |  |  |  |  |  |  |  |  |  |  |  |  |  |  |  |  |  | EC50 (bovine LPL): 3.89 nM |
